Target: eOD-GT8 60 mer (Aquifex aeolicus; HIV-1)
Test: ELISA, antibody titration

Substance	EC50 (read off the curve) [µg/mL]
VRC-PG04g1 (v-gene germline revertant of VRC-PG04) (antibody)	0.5
VRC01 (antibody)	0.2
